Series [1] in a line: Dynamic light scattering. The format is physicochemical. Particulars: DLS intensity average, scattering angle 90°, room temperature, Nanopure water.
Series [2] deals with human red blood cells. Kind of series: Hemolysis assay, hemoglobin released from red blood cells. The class given is cell-based. The following applies: hemoglobin in supernatant, spectrophotometric.
In series [3] the target is α-chymotrypsin (Bos taurus, UniProt P00766). The series can be described thus: Proteinase assay, α-chymotrypsin degradation by PAGE. Particulars: bands of intact MEL diminished significantly after 15 min. The format is in vitro ADME.
The test system of series [4] is SKOV-3 cells. Kind of series: Cell viability after 48 h treatment. The format is cell-based, human.
For series [5], the system named is NCI-H358 cells. The series can be described thus: Cell viability after 48 h treatment. The class given is cell-based, human.
Series [6] has as its system NCI-H358 cells. The series can be described thus: Cellular uptake kinetics by flow cytometry. Particulars: 1 μM of MEL for 1–4 h. The class given is cell-based, human. Background: In flow cytometry, cells or beads pass a laser one at a time.
Series [7] in a line: Plasma pharmacokinetics after tail vein injection. The class given is in vivo. Particulars: C57BL/6 mice, i.v. tail vein, Cy5.5-labeled, two-compartment model, n = 5.
In series [8] the test system is NCI-H358 xenografts. The series can be described thus: Biodistribution by fluorescence imaging in NCI-H358 xenograft mice. Particulars: i.v. 3 mg/kg MEL, 24 h post-injection, n = 2. The class given is in vivo.
The nature of series [9]: Innate immune response, cytokine ELISA. The format is in vivo. The following applies: C57BL/6 mice, 3 mg/kg MEL, blood 4 h after injection, n = 5. (In an ELISA, binding on a coated surface is turned into a signal by an enzyme label.)
Series [10] in a line: ζ potential measurement. The format is physicochemical. Particulars: in Nanopure water.
Series [11] deals with human plasma. Kind of series: Activated partial thromboplastin time. Particulars: 20 μM MEL concentration.
The subject of series [12] is SKOV3 cells. The series can be described thus: Cellular uptake kinetics by flow cytometry. The format is cell-based, human. The following applies: 1 μM of MEL for 1–4 h.
The test system of series [13] is NCI-H358 xenografts. The series can be described thus: Tumor growth inhibition in NCI-H358 xenograft. The format is in vivo, athymic nude mice. The following applies: 3 mg/kg MEL-basis i.v. every 3 days, 30 days, n = 4; vehicle 453%.

With “YPEG-MEL: conjugate of low PEG density: MEL on Y-shaped PEG, Mn 40 kDa, each arm 20 kDa”, the “Dh (hydrodynamic diameter, DLS)” value in series [1] stood at 21.0 ± 0.5 nm. For the same substance, in [2] (1 μM), the “hemolysis at 1 μM” value amounted to 16%. Further, the “α-chymotrypsin digestion (in words)” value in series [3] is listed as “digested rapidly”. For the same substance, the “cytotoxicity (cell viability, in words)” value in series [4] and in series [5] was “reduced but still apparent cytotoxicity” in each case.

Take melittin: in series [6], the “cellular uptake (in words)” value was “fast and accelerating process”. In addition, in series [7], the “elimination half-life (t1/2β)” value came to 43 min. Besides, in [8], the “tumor vs. liver ratio (relative fluorescent intensities)” value is recorded as 0.61 and the “tumor vs. spleen ratio (relative fluorescent intensities)” value came out at 0.55. In addition, in [2] (60 μM), the “hemolysis of RBCs at 60 μM” value is given as “near-complete hemolysis”. Moreover, the “interleukin-6 (IL-6) activation” value in [9] is “induces activation”. Moreover, in series [10], the ζ potential is listed as ~ 8 mV. For the same substance, in series [11], the “effect on coagulation (clotting) time, aPTT” value is given as “doubling the coagulation times”. In addition, the “α-chymotrypsin digestion (in words)” value in [3] is “digested rapidly”. Moreover, the “cellular uptake (in words)” value in series [12] was “fast and accelerating process”. Further, the “tumor growth by day 30 (% of original size)” value in series [13] is recorded as “did not lead to statistically meaningful repression of tumor growth”.

As to “pacMELNClv: non-cleavable conjugate of MEL and bottlebrush PEG, negative control”, the “cytotoxicity (cell viability, in words)” value in series [4] and in series [5] was “no evident cytotoxicity” throughout.

The values are drawn from article PMC8784393 (ACS applied materials & interfaces, 2021).
